# Data taken from patent US12709641B2, “Tau binding compounds” (VOYAGER THERAPEUTICS, INC., dated 2026).
# Tests used:
# [1] = biological target: T1, enriched paired helical filament tau protein (ePHF) (human, phosphorylated residues of pathological tau, sites not stated); assay: direct ELISA
# Protocol: (§1) Variable domain nucleic acid sequences from antibodies obtained from immunizations described above were used to prepare recombinant mouse IgG antibodies. These candidate antibodies were analyzed for binding to ePHF and specificity for ePHF over wild type tau by direct ELISA.
# (§2) For direct ePHF and wildtype tau ELISA, plates were first coated with ePHF or wild type tau. Antigen solutions were prepared in PBS and 50 μL were pipetted into each well. Plates were covered and incubated for one hour at 37° C. or overnight at 4° C. Plates were then washed and blocked by addition of 150 μl of blocking buffer to each well and incubated one hour at room temperature. Plates were then washed before addition of serially diluted candidate antibody samples prepared in blocking buffer. Detection of candidate antibody binding was carried out by washing plates and adding a solution of enzyme-labeled secondary antibody in blocking buffer to each well. Secondary antibody binding was detected by addition of substrate and spectrophotometric analysis of resulting reaction product.
# [2] = biological target: iPHF (Homo sapiens (Human), UniProt P10636-8); assay: Octet, antibody on biosensor tips
# Protocol: Anti-human tau antibodies were assessed for affinity for iPHF by Octet (ForteBio, Menlo Park, CA) analysis. Recombinant mouse IgG antibodies were prepared with clone-specific variable domain pairs selected from those presented in Table 3 and mouse IgG1 constant domains. Candidate antibodies were immobilized on biosensor tips (ForteBio) in kinetic buffer (ForteBio). Biosensor tips were then washed before introduction of a solution of iPHF in kinetic buffer for analysis of association and dissociation with candidate antibodies. Affinity measurements (K_D) were obtained using Data Analysis HT version 11.1 and corrected for background and high-frequency noise.
# [3] = biological target: T1, enriched paired helical filament tau …; assay: follow up analysis, method not stated
# [4] = biological target: wild type tau (Homo sapiens (Human), UniProt P10636-8); assay: direct ELISA
# Protocol: as §1, §2
Binder,EC50 [1],Kd [2],selectivity for ePHF over wild type tau [3],EC50 [4]
"V0055 (antibody, V domains shown) VH: not shown VL: DIVMTQSPSSLSVSAGEKVTMSCKSSQSLLNSGNQKNYLAWYQQKPGQPPKLLIYGASTRESGVPDRFTGSGSGTDFTLTISSVQAEDLAVYYCQNDHSHPYTFGGGTKLEIK",,1.3 nM,,
"V0054 (antibody, V domains shown) VH: not shown VL: DIVMTQSPSSLSVSAGEKVTMSCKSSQSLLNSGNQKNYLAWYQQKPGQPPKLLIYGTSTRESGVPDRFTGSGSGTDFTLTISSVQAEDLAVYYCQNDHSHPYTFGGGTKLEIK",,105 nM,,
"V0057 (antibody, V domains shown) VH: not shown VL: DIVMTQSPSSLSVSAGEKVTMSCKSSQSLLNSGNQKNYLAWYQQKPGQPPKLLIYGASTRESGVPDRFTGSGSGTDFTLTISSVQAEDLAVYYCQNDHSHPYTFGGGTKLEIK",,17.4 nM,,
"V00016 (antibody, V domains shown) VH: EVQLQQSGAELVKPGASVKLSCTASGFNIKDYYIHWVKQRTEQGLEWIGRIDPEDGETKYAPKFQGKATIAADTSSNTAYLHLNSLTSEDTAVYYCAREFSYAMDYWGQGTSVTVSS VL: NIMMTQSPSSLAVSAGEKVTMSCKSSQSVLYSSNQKNYLAWYQQKPGQSPKLLIYWASTRESGVPDRFTGSGSGTDFTLTISSVQAEDLAVYYCHQYLSSRTFGGGTKLEIK",,,,0.141 nM
"V0033 (antibody, V domains shown) VH: EVQLQQSGAELVRPGSSVKMSCKTSGYTFTSYGINWVKQRPGQGLEWIGYIYIGNGHTEYNEKFEGKATLTSDTSSSTAYMQLSSLTSEDSAIYFCAGTGTLFDYWGQGTTLTVSS VL: not shown",,,,0.342 nM
"V0026 (antibody, V domains shown) VH: QVQLQQSGPELVKPGASVKISCKASGYSFTDYYINWVKQRPGQGLEWIGWIFPGSDSTYYNEKFKGKATLTVDKSSSTASMLLSSLTSEDSAVYFCARPTVVARDYAMDYWGQGTSVTVSS VL: DVLMTQTPLSLPVSLGDQASISCRSSQSIVYSNGNTYLEWYLQKPGQSPKLLIYKVSNRFSGVPDRFSGSGSGTDFTLKISRVEAEDLGVYYCFQGSHVPYTFGGGTKLEIK",5.61 nM,0.7 nM,,
"V0027 (antibody, V domains shown) VH: QVQLQQSGPELVKPGASVKISCKASGYTFTEYYLNWMKQRPGQGLEWIGWIFPGRGSTNYNEKFKGKATLTVDKSSSTAYMLLSSLTSEDSAVYFCARPTIVARDYAMDYWGQGTSVTVSS VL: DVLMTQTPLSLPVSLGDQASISCRSSQSIVHRNGNTYLEWYLQKPGQSPKLLIYKVSNRFSGVPDRFSGSGSGTDFTLKISRVEAEDLGVYYCFQGSHVPFTFGSGTKLEIK",3.51 nM,10.5 nM,,
"V0031 (antibody, V domains shown) VH: QVQLQQPGTELVKPGASVKLSCKASGYTFTSYWMHWVKQRPGQGLEWIGNIYPSNGGTYYNEKFKSKATLTVDKSSSTAYMQLSSLTSEDSAVYYCARSSVVGRDYAMDYWGQGTSVTVSS VL: DVLMTQTPLSLPVSLGDQASIACRSSQSIVHSNGNTYLEWYLQKPGQSPELLIYKVSNRFSGVPDRFSGSGSGTDFTLKISRVEAEDLGVYYCFQGSHVPYTFGGGTKLEIK",8.8 nM,57.7 nM,,
"V0032 (antibody, V domains shown) VH: QVQLKQSGAELVRPGASVKLSCKTSGYTFTDYYIKWVKQRPGQGLEWIARIYPGSGNTYYNEKFKGKATLTAEKSSSTAYMQLSSLTSEDSAVYFCARPAYYSKDYAMEYWGQGTSVTVSS VL: DVLMTQTPLSLPVSLGDQASISCRSSQSIVYTNGNTYLEWYLQKPGQSPKLLIYKVSNRFSGVPDRFSGSGSGTDFTLKISRVEAEDLGVYYCFQGSHVPYTFGGGTKLEIK",14.3 nM,17.5 nM,,
"V00019 (antibody, V domains shown) VH: QVQLQQPGAALVRPGSSVKLSCKASGYTFTSSWMHWVKQRPIQGLEWIGNIDPSDGETHYNQKFKDKATLTVDKSSNTAYMQLSSLTSEDSAVYYCARWDDYYVAYWGQGTLVTVSA VL: DIVLTQSPASLAVSLGQRATISCRASKSVSTSGYSYMHWYQQKPGQPPKLLIYLASNLESGVPARFSGSGSGTDFTLNIHPVEEEDAATYYCLHSRELPWTFGGGTKLEIK",,,,0.285 nM
"V0050 (antibody, V domains shown) VH: EVQLQQSGPELVKPGASVKIPCRASGYTFTDYNMDWVKQSHGKTLEWIGDINPNNGGTIYNQKFKGKATLTVDKSSSTAYMELRSLTSEDTAVYYCARGRGMGYYALDYWGQGTSVTVSS VL: DIQMTQSPASLSASVGETVTFTCGASENVYGALNWYQRKQGKSPQLLIYGATNLADGMSSRFSGSGSGRQYSLKISSLHPDDVATYYCQNVLTIPWTFGGGAKLEIK",17.9 nM,0.4 nM,,

# Continued by falling EC50 [1], values first:
EC50 [1],Kd [2],selectivity for ePHF over wild type tau [3],EC50 [4],Binder
2.45 nM,1 nM,,,"V0058 (antibody, V domains shown) VH: not shown VL: DIVMTQSPSSLSVSAGEKVTMSCKSSQSLLSSGNQKNYLAWYQQKPGQPPKLLIYGASTRESGVPDRFTGSGSGTDFTLTISSVQAEDLAVYYCQNDHSHPYTFGGGTKLEIK"
0.718 nM,,,0.238 nM,"V00018 (antibody, V domains shown) VH: QVQLQQPGADLVRPGSSVKLSCKASGYTFTRSWMHWVKQRPIEGLEWIGNIDPSDSEAHYNQKFKDKATLTVDKFSNTAYMQLSSLTSEDSAVYYCARWDDFYVAYWGQGTLVTVSA VL: DIVLTQSPASLAVSLGQRATISCRASKSVSTSGYSYIHWYQQKPGQPPKLLIYLASNLESGVPARFSGSGSGTDFTLNIHPVEEEDAATYYCQHSRELPWTFGGGTKLEIK"
0.571 nM,15.1 nM,,,"V0021 (antibody, V domains shown) VH: QVQLQQPGIELVKTGASVKLSCKASGYTFTSNWMHWLKQRPGQGLEWIGNINPNNSETNYNEKFRKKATLTVDKSSSAAYMQLISLTSEDSAVYYCARANYYGGSQFAYWGQGTLVTVSA VL: DVVMTQTPLSLCVSLGDQASISCRSSQSLVHSNGKTYLHWYLQKPGQSPNLLIYKVSNRFSGVPDRFSGSGSGTDFTLKISRVEAEDLGVYFCSQSTHVPFTFGSGTKLEIK"
0.351 nM,32.7 nM,,,"V0020 (antibody, V domains shown) VH: QVQLQQPGTDLVKPGASVKLSCKASGYTFTSYWMHWLKQRPGQGLEWIGNINPNNSDANYNEKFKSKATLTVDKSSSAAYMQLISLTSEDSAVYYCARANYYGGSQFAYWGQGTLVTVSA VL: DVVVTQTPLSLPVSLGDQASISCRSSQSLVHSNGKTYLHWYLQKPGQSPNLLIYKVSNRFSGVPDRFSGSGSGTDFTLKISRVEAEDLGVYFCSQSTHVPFTFGSGTKLEIK"
0.351 nM,,,0.14 nM,"V0034 (antibody, V domains shown) VH: EVQLQQSGAELVRPGSSVKMSCKTSGYTFTSYGINWVKQRPGQGLEWVGYIYIRDGNTAYNEKFKGKATVTSDTSSSTVYMQLSSLTSEDSAIYFCAGTGTSFAYWGQGTLVTVSA VL: not shown"
0.315 nM,,,0.169 nM,"V0035 (antibody, V domains shown) VH: EAQLQQSGAELVRPGSSVKMSCKTSGYTFTSYGINWVKQRPGQGLEWIGYIYIRNGNTAYNEKFKGKATVTSDTSSSTVYMQLSSLTSEDSAIYFCAGTGTSFTYWGQGTLVTVSA VL: not shown"
0.209 nM,,,,"V0044 (antibody, V domains shown) VH: DVQLQESGPGLVKPSQSLSLTCSVTGYSITTNYYWNWIRQFPGNKLEWMGYITYDGSNNYNPSLKNRISITRDTSKNQFFLKLNSVTTEDTATYYCARGPPTAYWGQGTLVTVSA VL: NIVMTQTPKFLPIAAGDRVIMTCKASQSVGNNVGWYQLKPGQSPKLLIYFASNRYTGVPDRFTGSGSGTDFTFTISSVQVEDLAVYFCQQHYSSPLTFGAGTKLELK"
0.171 nM,,,,"V00011 (antibody, V domains shown) VH: EVQLVESGGGLVKPGGSLKLSCAASGFTFSDYGMYWVRQAPEKGLEWVAYISSGSTTIYYADTVKGRFTISRDNAKNTLFLQMTSLRSEDTAMYYCAGHWYFDVWGTGTTVTVSS VL: DVLMTQTPVSLPVSLGDQASISCRSSQSIVHSNGNTHLEWYLQKPGQSPKLLIYKVSNRFSGVPDRFSGSGSGTDFTLKISRVEAEDLGVYYCFQDSHVPWTFGGGTKLEIK"
0.134 nM,,,,"V00010 (antibody, V domains shown) VH: QIQLVQSGPELKKPGETVKISCKASGYSFTTYGMSWVKQAPGKGLKWMGWINTYSGVPTYADDFKERFAFSLETSASTAYLQINNLKNEDTSTYFCARRGGLYDGYYGYWGQGTTLTVSS VL: DIVMSQSPSSLAVSAGEKVTMSCKSSQSLLSSRTRKNYLAWYQQKPGQSPKLLIYWASTRESGVPDRFTGSGSGTDFTLTITTVQAEDLAVYYCKQSYNLWTFGGGTKLEIK"
0.118 nM,,,,"V0047 (antibody, V domains shown) VH: EVQLVESGGGLVKPGGSLKLSCAASGFTFSDYGMHWVRQAPEKGLEWVAYISSGSRTIYYADTVKGRFTISRDNAKNTLFLQMTSLRSEDTAMYYCARSPYAMDYWGQGTSVTVSS VL: DVVMTQTPLSLPVSLGDQASISCRSSQSLVHSNGNTYLHWYLQKPGQSPKLLIYKVSNRFSGVPDRFSGSGSGTDFTLKISRVEAEDLGVYFCSQSTHVPWTFGGGTKLEIK"
0.038 nM,0.2 nM,> 100 fold,,"V0009 (antibody, V domains shown) VH: EVQLVESGGALVQPGGSLSLSCAASGFTFTDYYMSWVRQPPGKALEWLALIRNKAKGFTTEYSASVKGRFTISRDNSQSILLFQMNDLRADDSATYYCVRDINYWGQGTTLTVSS VL: not shown"
